# Measurements as given in patent US20090110693A1 (IMAXIO, published 2009).
# B1: AVD259 protein (chicken C4 bp oligomerisation domain with N-terminal leader) (other)
# chain: MALKKHHENEISHHGSKKQGDADVCGEVAYIQSVVSDCHVPTEDVKTLLEIRKLFLEIQKLKVELQGLSKEFLEHILH
# notes: Expressed in E. coli; On a non-reducing gel, monomer to heptamer bands are seen because disulphide formation is incomplete; the heptamer is the highest species; also called recombinant AVD259 protein
# B2: AVD262 fusion protein (Plasmodium yoelii MSP1.19-chicken C4 bp oligomerisation domain) (other)
# chain: MRSHIASIALNNLNKSGLVGEGESKKILAKMLNMDGMDLLGVDPKHVCVDTRDIPKNAGCFRDDNGTEEWRCLLGYKKGEGNTCVENNNPTCDINNGGCDPTASCQNAESTENSKKIICTCKEPTPNAYYEGVFCSSSGSKKQGDADVCGEVAYIQSVVSDCHVPTEDVKTLLEIRKLFLEIQKLKVELQGLSKEFLEHILH
# notes: Runs as a disulphide-linked heptamer of about 140 kDa without reducing agent
# Target: the molecule itself
# Experiment: self-association, SDS-PAGE with and without reducing agent
row,Protein,binding result
1,B1,binds
2,B2,binds
